{"source": "patent US20100291075A1", "about": "(THERACLONE SCIENCES, published 2010)", "target": "recombinant GPI-linked rhesus GM-CSF on the surface of transiently transfected 293 cells (rhesus)", "data": [{"binder": "1783J22 human monoclonal antibody (whole IgG) (antibody, V domains shown) VH: EVQLLQSGGGLTHPGGSLRLSCAASGFPFHKYTMTWVRQPPGKGLEWVSSVSGVNGKTYYSPSVRGRAIVSRDDSNSMLFLEIKNMTAGDTALYFCAKGPGGHLHYYYGLDVWGHGTSVTVSS VL: DIQMTQSPSSLSASIGDRVTISCRASQAINNYVAWFQQSAGKAPKSLIYGASNLQPGVPPRFSGSVSGTNFSLTIDGLQSEDFATYFCQNYFGYPLTFGGGTTLEIKR", "values": [{"measurement": "EC50 (read off the curve)", "result": "~0.05", "unit": "mg/L"}]}]}
